In patent publication US20200123270A1 (Astellas, published 2020):

What was measured:
[1] = target: human CEACAM5 (R&D Systems, Inc.), biotinylated (human) (UniProt P06731); experiment: SPR (Biacore T200), biotinylated human CEACAM5 captured on chip, Fab as analyte
[2] = target: human CEACAM5 (R&D Systems, Inc.), biotinylated (human) (UniProt P06731); experiment: SPR (Biacore T200), biotinylated human CEACAM5 captured on chip, Fab conjugate as analyte
[3] = target: T1, human CEACAM5 (R&D Systems, Inc.), biotinylated (human, UniProt P06731 35-685, biotinylated with Biotin Labeling Kit-NH2; sites not stated); experiment: SPR (Biacore T200), biotinylated human CEACAM5 captured on chip, Fab as analyte
T1 construct: Bought protein, biotinylated and captured on the sensor chip with the Biotin CAPture Kit
T1 sequence (looked up): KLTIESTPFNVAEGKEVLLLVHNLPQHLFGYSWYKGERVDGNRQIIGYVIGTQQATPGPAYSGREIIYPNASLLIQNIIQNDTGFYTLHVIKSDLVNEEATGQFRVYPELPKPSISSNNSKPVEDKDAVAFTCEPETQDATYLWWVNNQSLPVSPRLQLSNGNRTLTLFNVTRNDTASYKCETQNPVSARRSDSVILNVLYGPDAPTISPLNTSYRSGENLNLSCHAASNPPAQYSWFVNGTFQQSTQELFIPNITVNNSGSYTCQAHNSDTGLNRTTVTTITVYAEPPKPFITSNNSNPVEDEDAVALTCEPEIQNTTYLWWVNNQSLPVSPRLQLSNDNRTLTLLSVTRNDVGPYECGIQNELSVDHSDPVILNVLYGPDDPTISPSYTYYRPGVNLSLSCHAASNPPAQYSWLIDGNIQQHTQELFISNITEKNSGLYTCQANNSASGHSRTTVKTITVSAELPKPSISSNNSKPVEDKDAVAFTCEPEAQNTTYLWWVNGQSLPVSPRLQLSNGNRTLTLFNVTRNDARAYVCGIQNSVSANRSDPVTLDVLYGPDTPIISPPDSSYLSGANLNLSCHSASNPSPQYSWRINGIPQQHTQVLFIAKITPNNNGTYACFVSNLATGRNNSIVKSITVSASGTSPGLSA
Experimental: (§1) The analysis by SPR was conducted using Biacore T200 (GE Healthcare Japan Corp.). 10 μg/mL human CEACAM5 (R&D Systems, Inc.) biotinylated with Biotin CAPture Kit, Series S (GE Healthcare Japan Corp.) and Biotin Labeling Kit-NH₂ (Dojindo Laboratories) was added to the surface of the sensor chip at a flow rate of 5 μL/min for 2 minutes, and immobilized thereonto. PB009-01, PB009-02, M5A-Fab and M5A-Fab-DFO were diluted with HBS-EP+ solution (GE Healthcare Japan Corp.) into 6 series at a 2-fold ratio from 400 nM, and 100 μL each was added to the channel at a flow rate of 50 μL/min. In this measurement system, the dissociation constant (KD) of PB009-01, PB009-02, M5A-Fab or M5A-Fab-DFO for human CEACAM5 was calculated using data analysis software (BIA Evaluation, GE Healthcare Japan Corp.). As a result, as shown in the table given below, the binding activity of M5A-Fab was attenuated by the binding of DFO, whereas the binding activity of PB009-01 was not attenuated by the binding of DFO.

[4] = target: T1, human CEACAM5 (R&D Systems, Inc.), …; experiment: SPR (Biacore T200), biotinylated human CEACAM5 captured on chip, Fab conjugate as analyte
Experimental: In order to measure the detailed binding activity of PB009-02, analysis was conducted by SPR. In this Example, a Fab fragment of M5A (referred to as M5A-Fab), a humanized antibody of T84.66, was used as a comparative Fab fragment. M5A-Fab bound to DFO via a linker (referred to as M5A-Fab-DFO) was prepared by use of the method described in Example 2.
as §1

With “Fab fragment of M5A, a humanized antibody of T84.66” the Kd [1] was 0.16 nM.

M5A-Fab bound to DFO via a linker gave a Kd [2] of 9.6 nM.

B1: anti-human CEACAM5 antibody Fab fragment PB009-01 (Fab, V domains shown)
VH: EVQLVESGGGLVQPGGSLRLSCAASGFNIRDTYMHWVRQAPGKGLEWVARIDPANGNSRYVPKFQGRFTISADTSRNTAYLQMNSLRAEDTAVYYCAPFGYYVSDYAMAYWGQGTLVTVSS
VL: DIQLTQSPSSLSASVGDRVTITCRAGESVDIFGVGFLHWYQQKPGKAPKLLIYRASNLESGIPSRFSGSGSRTDFTLTISSLQPEDFATYYCQQTNEDPYTFGQGTKVEIKR
notes: Humanized and redesigned from mouse anti-human CEACAM5 antibody T84.66
For B1, the Kd [3] was 0.17 nM.

B2: PB009-02 (Fab fragment PB009-01 bound to DFO via a linker) (Fab, V domains shown)
VH: EVQLVESGGGLVQPGGSLRLSCAASGFNIRDTYMHWVRQAPGKGLEWVARIDPANGNSRYVPKFQGRFTISADTSRNTAYLQMNSLRAEDTAVYYCAPFGYYVSDYAMAYWGQGTLVTVSS
VL: DIQLTQSPSSLSASVGDRVTITCRAGESVDIFGVGFLHWYQQKPGKAPKLLIYRASNLESGIPSRFSGSGSRTDFTLTISSLQPEDFATYYCQQTNEDPYTFGQGTKVEIKR
modifications: DFO bound via linker -C(=S)-NH-(1,4-phenylene)-NH-C(=S)- (from p-SCN-Bn-DFO); at least 3 to 10 DFO ligands per Fab by mass spectrometry; modified residues and their split between the chains not …
notes: Chemical conjugate of PB009-01 with the chelator DFO
B2 showed a Kd [4] of 0.61 nM.
